Source: patent EP4574844A1 (Numab Therapeutics AG, dated 2025)

T1: Fc-tagged human PDL2 (human, UniProt Q9BQ51 20-220, limits assumed)
T1 sequence (looked up): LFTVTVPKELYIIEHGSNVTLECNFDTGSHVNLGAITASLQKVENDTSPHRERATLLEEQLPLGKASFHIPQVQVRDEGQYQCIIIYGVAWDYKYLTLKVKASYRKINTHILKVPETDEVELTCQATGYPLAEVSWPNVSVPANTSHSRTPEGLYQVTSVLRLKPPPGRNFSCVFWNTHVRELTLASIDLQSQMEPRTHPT

B1: PRO1392 (scFv)
scFv: DIQMTQSPSSLSASVGDRVTITCQASQSINDYLAWYQQKPGKAPKLLIYKASTLASGVPSRFSGSGSGTDFTLTISSLQPEDFATYYCQQGYIITDIDNVFGTGTKVTVLGGGGGSGGGGSGGGGSGGGGSQVQLQESGPGLVKPSETLSLTCKASGFSFSSGYDMCWVRQPPGKGLEWIACVVAGSVDITYYASWAKGRVTISKDSSKNQVSLKLSSVTAADTAVYYCARKDAYSDAFNLWGQGTLVTVSS
notes: anti-PDL1 scFv (VL-linker-VH); also called 33-03-G02-sc18
B2: PRO1347 (scFv)
scFv: DIQMTQSPASLSASVGDRVTITCQASQSIGTYLAWYQQKPGKPPKLLIYRAFILASGVPSRFSGSGSGTDFTLTISSLQPEDFATYYCQSNFYSDSTTIGPNAFGTGTKVTVLGGGGGSGGGGSGGGGSGGGGSEVQLVESGGGLVQPGGSLRLSCAASGFSFNSDYWIYWVRQAPGKGLEWIACIYGGSSGNTQYASWAQGRFTISRDNSKNTVYLQMNSLRAEDTAVYFCARGYVDYGGATDLWGQGTLVTVSS
notes: anti-PDL1 scFv; also called 37-20-B03-sc09
B3: PRO4710 (antibody, human IgG4 S228P, kappa, V domains shown)
VH: QQLVESGGGLVQPGGSLRLSCAASGFSFTNNYYMCWVRQAPGKGLEWIACMLVGAWGNTYYASWANGRFTISKDNSKNTVYLQMNSLRAEDTAVYFCARARDYTWTLGGDPETSGFNLWGQGTLVTVSS
VL: DVQMTQSPSSLSASVGDRVTITCQASQSIGSNLAWYQQKPGKPPKLLIYKGGTLESGVPSRFSGSGSGTDFTLTISSLQPEDFATYYCQSTAGSSRSGNYGYVFGQGTKVEIKR
notes: anti-LILRB2 IgG4; also called 68-18-E11-sc07 IgG4; IgG4 variant of scFv PRO3744

Key:
[1] = target: human PD-L1 on the cell surface (human, UniProt Q9NZQ7 19-290); test: cell-based or functional assay
[2] = target: T2, recombinant cynomolgus PDL1 (cynomolgus monkey, UniProt G7PSE7 19-238); test: SPR
T2 construct: also called cynom; PDL1

[3] = target: T3, recombinant human PDL1 (human, UniProt Q9NZQ7 19-238, limits assumed); test: SPR
T3 construct: SPR antigen; also called CD274; B7-H1

[4] = target: T1, Fc-tagged human PDL2; test: SPR, Fc-tagged human PDL2 captured, scFv as analyte
[5] = target: T4, LILRB3 on transiently transfected CHO cells (UniProt O75022 24-631, limits assumed); test: CELISA, transiently transfected CHO cells
T4 construct: whole, on cells; V5 tag at the N-terminus

[6] = target: T5, LILRA5 on transiently transfected CHO cells (UniProt A6NI73 42-299); test: CELISA, transiently transfected CHO cells
T5 construct: whole, on cells; V5 tag at the N-terminus

[7] = target: T6, LILRB4 on transiently transfected CHO cells (UniProt Q8NHJ6 22-448); test: CELISA, transiently transfected CHO cells
T6 construct: whole, on cells; V5 tag at the N-terminus

[8] = target: T7, LILRB1 on transiently transfected CHO cells (UniProt Q8NHL6 24-650); test: CELISA, transiently transfected CHO cells
T7 construct: whole, on cells; V5 tag at the N-terminus

[9] = target: T8, LILRA2 on transiently transfected CHO cells (UniProt Q8N149 24-483); test: CELISA, transiently transfected CHO cells
T8 construct: whole, on cells; V5 tag at the N-terminus

[10] = target: T9, LILRA1 on transiently transfected CHO cells (UniProt O75019 17-489, limits assumed); test: CELISA, transiently transfected CHO cells
T9 construct: whole, on cells; V5 tag at the N-terminus

[11] = target: T10, LILRB5 on transiently transfected CHO cells (UniProt O75023 24-590, limits assumed); test: CELISA, transiently transfected CHO cells
T10 construct: whole, on cells; V5 tag at the N-terminus

[12] = target: T11, LILRA4 on transiently transfected CHO cells (UniProt P59901 24-499); test: CELISA, transiently transfected CHO cells
T11 construct: whole, on cells; V5 tag at the N-terminus

[13] = target: T12, LILRA3 on transiently transfected CHO cells (UniProt Q8N6C8 24-439); test: CELISA, transiently transfected CHO cells
T12 construct: whole, on cells; V5 tag at the N-terminus

[14] = target: T13, LILRA6 on transiently transfected CHO cells (UniProt Q6PI73 24-481); test: CELISA, transiently transfected CHO cells
T13 construct: whole, on cells; V5 tag at the N-terminus

[15] = target: T14, human LILRB2 on the cell surface (human, UniProt Q8N423 22-597); test: cell-based or functional assay
[16] = target: T14, human LILRB2 on the cell surface; test: cell-based or functional assay; remark: listed apart in the source

T2 sequence (G7PSE7 entry or part of it): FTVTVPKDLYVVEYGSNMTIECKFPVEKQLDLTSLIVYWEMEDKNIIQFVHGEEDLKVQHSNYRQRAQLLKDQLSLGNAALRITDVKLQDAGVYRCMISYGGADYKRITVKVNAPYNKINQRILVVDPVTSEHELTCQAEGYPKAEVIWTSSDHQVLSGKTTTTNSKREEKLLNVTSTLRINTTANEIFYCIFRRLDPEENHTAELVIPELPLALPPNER
T14 sequence (Q8N423 22-597): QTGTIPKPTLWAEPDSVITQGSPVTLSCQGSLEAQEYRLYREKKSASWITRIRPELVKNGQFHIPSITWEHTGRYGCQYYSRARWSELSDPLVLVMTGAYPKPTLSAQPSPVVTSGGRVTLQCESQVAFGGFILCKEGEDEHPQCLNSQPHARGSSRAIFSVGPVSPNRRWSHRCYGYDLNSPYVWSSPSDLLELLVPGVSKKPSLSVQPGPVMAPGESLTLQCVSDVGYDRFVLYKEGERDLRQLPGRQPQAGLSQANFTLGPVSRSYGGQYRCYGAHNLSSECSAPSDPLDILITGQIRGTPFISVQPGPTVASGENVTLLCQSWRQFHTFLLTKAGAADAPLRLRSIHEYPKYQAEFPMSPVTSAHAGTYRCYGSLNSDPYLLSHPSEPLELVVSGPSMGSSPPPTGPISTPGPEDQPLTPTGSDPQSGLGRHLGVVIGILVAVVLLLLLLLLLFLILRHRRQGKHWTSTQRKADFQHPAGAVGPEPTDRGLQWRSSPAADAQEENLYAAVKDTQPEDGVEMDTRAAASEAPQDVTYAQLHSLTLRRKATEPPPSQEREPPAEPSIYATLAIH
T11 sequence (P59901 24-499): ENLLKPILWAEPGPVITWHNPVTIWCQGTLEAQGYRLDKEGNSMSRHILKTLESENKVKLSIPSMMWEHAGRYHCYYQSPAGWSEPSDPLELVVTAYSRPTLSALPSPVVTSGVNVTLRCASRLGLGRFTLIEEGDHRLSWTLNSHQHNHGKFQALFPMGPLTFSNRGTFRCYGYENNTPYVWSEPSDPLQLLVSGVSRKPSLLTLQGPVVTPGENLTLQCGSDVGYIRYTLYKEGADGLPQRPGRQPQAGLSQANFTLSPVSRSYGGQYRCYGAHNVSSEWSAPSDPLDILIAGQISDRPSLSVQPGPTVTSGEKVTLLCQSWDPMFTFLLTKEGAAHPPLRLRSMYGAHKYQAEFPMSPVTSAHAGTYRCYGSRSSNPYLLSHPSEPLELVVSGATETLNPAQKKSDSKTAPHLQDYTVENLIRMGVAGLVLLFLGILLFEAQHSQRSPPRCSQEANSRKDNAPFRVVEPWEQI
T7 sequence (Q8NHL6 24-650): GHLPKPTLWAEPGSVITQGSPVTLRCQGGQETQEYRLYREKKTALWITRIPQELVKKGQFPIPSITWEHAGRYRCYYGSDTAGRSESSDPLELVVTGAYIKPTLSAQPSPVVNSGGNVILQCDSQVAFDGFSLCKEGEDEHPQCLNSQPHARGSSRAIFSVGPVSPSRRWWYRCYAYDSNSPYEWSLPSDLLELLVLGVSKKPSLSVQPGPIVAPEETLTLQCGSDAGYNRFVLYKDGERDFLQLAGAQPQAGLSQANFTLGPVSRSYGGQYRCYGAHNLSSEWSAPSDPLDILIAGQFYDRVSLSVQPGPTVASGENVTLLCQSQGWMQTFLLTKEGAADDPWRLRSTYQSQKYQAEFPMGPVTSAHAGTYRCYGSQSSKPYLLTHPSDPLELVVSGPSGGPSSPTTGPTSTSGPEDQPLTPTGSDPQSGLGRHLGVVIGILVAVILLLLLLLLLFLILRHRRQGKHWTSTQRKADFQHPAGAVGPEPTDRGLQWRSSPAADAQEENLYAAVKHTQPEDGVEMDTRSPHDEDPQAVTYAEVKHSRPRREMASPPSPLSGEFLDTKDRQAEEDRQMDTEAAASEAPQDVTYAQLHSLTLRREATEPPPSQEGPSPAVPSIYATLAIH
T8 sequence (Q8N149 24-483): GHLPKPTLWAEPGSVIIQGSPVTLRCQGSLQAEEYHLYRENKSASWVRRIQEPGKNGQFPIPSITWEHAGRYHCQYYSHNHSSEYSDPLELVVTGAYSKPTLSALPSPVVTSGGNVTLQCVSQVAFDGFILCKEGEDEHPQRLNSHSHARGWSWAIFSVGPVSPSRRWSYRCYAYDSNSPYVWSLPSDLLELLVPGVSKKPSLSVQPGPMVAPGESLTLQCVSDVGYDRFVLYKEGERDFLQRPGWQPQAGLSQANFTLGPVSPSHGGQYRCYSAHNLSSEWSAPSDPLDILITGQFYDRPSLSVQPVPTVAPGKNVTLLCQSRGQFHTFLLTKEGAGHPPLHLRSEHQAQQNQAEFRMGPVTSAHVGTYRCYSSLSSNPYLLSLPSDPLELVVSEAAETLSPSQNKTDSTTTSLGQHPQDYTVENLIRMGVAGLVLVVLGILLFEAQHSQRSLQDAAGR
T13 sequence (Q6PI73 24-481): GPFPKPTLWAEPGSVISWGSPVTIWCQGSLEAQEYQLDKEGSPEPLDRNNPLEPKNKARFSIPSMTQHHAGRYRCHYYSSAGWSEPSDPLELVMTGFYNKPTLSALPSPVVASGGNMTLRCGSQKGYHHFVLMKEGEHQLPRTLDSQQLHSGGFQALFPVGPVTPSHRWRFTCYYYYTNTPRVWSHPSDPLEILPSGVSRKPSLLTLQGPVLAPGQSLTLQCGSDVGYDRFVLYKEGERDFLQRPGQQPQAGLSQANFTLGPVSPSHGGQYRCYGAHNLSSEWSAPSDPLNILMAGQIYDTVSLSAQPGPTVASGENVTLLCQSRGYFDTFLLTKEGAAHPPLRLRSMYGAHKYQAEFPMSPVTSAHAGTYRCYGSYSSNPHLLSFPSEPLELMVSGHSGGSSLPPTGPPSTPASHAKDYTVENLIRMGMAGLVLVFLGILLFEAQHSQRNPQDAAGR
T5 sequence (A6NI73 42-299): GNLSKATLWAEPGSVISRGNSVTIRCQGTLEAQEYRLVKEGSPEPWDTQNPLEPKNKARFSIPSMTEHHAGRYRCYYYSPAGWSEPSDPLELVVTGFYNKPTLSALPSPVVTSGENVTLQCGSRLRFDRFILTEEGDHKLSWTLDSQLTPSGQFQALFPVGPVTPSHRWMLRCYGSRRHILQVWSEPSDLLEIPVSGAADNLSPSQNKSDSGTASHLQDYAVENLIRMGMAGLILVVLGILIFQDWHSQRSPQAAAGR
T12 sequence (Q8N6C8 24-439): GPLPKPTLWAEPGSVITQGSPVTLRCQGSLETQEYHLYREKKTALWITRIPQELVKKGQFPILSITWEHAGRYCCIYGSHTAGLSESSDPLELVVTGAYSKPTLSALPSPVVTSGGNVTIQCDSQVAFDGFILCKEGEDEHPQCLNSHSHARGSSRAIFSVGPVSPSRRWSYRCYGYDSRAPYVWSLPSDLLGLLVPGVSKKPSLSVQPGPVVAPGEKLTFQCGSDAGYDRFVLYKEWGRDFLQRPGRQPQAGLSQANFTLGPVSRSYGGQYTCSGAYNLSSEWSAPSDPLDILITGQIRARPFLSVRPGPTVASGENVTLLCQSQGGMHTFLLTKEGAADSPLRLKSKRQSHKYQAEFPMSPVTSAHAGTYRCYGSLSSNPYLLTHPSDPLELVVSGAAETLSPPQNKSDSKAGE
T9 sequence (O75019 17-489 limits assumed): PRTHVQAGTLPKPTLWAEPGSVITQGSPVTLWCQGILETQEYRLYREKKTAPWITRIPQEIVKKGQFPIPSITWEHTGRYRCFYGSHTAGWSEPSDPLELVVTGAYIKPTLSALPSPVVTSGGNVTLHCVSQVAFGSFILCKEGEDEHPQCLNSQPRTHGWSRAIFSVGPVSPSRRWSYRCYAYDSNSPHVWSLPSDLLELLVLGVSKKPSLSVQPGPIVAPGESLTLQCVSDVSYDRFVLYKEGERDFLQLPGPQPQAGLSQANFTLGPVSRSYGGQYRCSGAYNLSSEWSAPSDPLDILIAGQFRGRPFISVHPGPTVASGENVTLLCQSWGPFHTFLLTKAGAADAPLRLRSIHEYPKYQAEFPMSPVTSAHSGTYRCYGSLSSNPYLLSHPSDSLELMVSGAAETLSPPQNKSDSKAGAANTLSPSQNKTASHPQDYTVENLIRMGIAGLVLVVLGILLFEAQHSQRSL
T10 sequence (O75023 24-590 limits assumed): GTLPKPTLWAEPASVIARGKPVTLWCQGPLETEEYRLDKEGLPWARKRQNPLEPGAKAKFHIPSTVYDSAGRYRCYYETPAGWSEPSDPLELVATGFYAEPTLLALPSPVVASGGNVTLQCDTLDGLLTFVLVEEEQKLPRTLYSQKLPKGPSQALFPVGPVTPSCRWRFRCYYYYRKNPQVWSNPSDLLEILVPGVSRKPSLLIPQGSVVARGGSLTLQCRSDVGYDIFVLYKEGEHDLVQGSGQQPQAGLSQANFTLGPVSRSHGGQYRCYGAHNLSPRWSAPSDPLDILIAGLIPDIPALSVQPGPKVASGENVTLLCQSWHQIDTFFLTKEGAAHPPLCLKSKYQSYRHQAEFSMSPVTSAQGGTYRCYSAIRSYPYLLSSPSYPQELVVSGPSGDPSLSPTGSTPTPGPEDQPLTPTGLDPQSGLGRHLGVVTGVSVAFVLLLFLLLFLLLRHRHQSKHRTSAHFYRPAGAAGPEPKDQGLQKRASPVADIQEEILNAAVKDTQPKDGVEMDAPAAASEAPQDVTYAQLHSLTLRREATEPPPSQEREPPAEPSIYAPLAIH

| Binder | PDL1/PD-1 EC50 [nM], NFAT reporter gene assay [1] | PDL1/PD-1 Max. inhibition (rel. to avelumab) [%] [1] | Kd [2] | koff [2] | kon [2] | Kd [3] | koff [3] | kon [3] | binding result [4] | other results |
| --- | --- | --- | --- | --- | --- | --- | --- | --- | --- | --- |
| B1 | 0.97 nM | 104% | 0.0065 nM | 3.4e-05 s⁻¹ | 5.2e+06 M⁻¹ s⁻¹ | 0.0086 nM | 4.8e-05 s⁻¹ | 5.6e+06 M⁻¹ s⁻¹ | no binding (tested: 180 nM) | – |
| B2 | 0.28 nM | 100% | 0.0127 nM | 8.77e-05 s⁻¹ | 6.88e+06 M⁻¹ s⁻¹ | 0.0109 nM | 6.64e-05 s⁻¹ | 7.38e+06 M⁻¹ s⁻¹ | no binding (tested: 180 nM) | – |
| B3 | – | – | – | – | – | – | – | – | – | binding result [5]: no binding (tested: up to 100 nM); binding result [6]: no binding (tested: up to 100 nM); binding result [7]: no binding (tested: up to 100 nM); binding result [8]: no binding (tested: up to 100 nM); binding result [9]: no binding (tested: up to 100 nM); binding result [10]: no binding (tested: up to 100 nM); binding result [11]: no binding (tested: up to 100 nM); binding result [12]: no binding (tested: up to 100 nM); binding result [13]: no binding (tested: up to 100 nM); binding result [14]: no binding (tested: up to 100 nM); CD86 EC50 [nM], re-polarization of M2 macrophages [15]: 0.119 nM; CD163 EC50 [nM], re-polarization of M2 macrophages [15]: 0.072 nM; CD206 EC50 [nM], re-polarization of M2 macrophages [15]: 0.203 nM; IL-1β EC50 [nM], LPS-driven cytokine secretion [16]: 0.248 nM; IL-6 EC50 [nM], LPS-driven cytokine secretion [16]: 0.153 nM; TNF-α EC50 [nM], LPS-driven cytokine secretion [16]: 0.169 nM |
